Test results from a protein production outcome set (Wang et al. 2014).

Assay: label from the status in PepcDB records
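Further: failed if final PepcDB status was selected cloned or expressed and not failed if soluble or beyond.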

Sequence	protein production
MRRHRLSGQITLSMSVVVAIAVLMVFVGTFIFYSIYMTWFPPPPGPPPLLPEAPDFILIAIFLLLGLAIAIHAALRLTRRILAPLNSLAEGARKIAAGDLTARAVAGDRSLGETAQLVDDFNAMARRLEDAAESMTSWNAAIAHELRTPLTILRGRLQGLTDGVFEPSDELFRSLLVQVENLSRLVDDLRVVTLSDSQRLDMRVEPTDLANEVAQAVDAMRPALEGAGFSIRMTTEPVTLPCDGPRIRQALLALLENARRYATPGMIVIRMTLETFEVAIAVEDEGPGLSAEFAARAFDAFVRAEPSRSRQFGGSGLGLSVVRAIAEAHGGHARYSTSEKGGSVFEIVFPIDGASADSNAASCAPKV	failed
MRRKERRESMKKHRQLLALFICLVMSVSLLTGYSETKAATEEPTQSAEQDATQETAETREITDMAGRKVTVPTAENIESVFSAGPVAAIFLYMVVPDKLLGWNYELNDVEKSIILDKYQDLPNFGMGDAVNYEAVIAANPTIAINSGKINDAMVSDCDALSESLGIPVVAVDNELNNSAEAFRFMGELLGVEDHAEELAQYAEQVFTDINVLSDIPEEKKVSVYFGNGEDSLETAPRGSQHAQILDAINAVNVADLELGDGSRVQISAEQLLAWDPDVIVVNGEPKADKSGSSAAEDILSNPDYASLKAVQDQKVYGTPNAPFSWVDRPAGPNRLIGMRWFSALIYPEYIKCDINEEIHKFFDLFYHVDLSDEQLENVLKGTL	failed
MRRNRVDVITLGCSKNLVDSEVLMRQFLSNGYTVHHDPASVCGEIVVVNTCGFIGDAQEESVNTILEMVEAKKAGRIGSLYVMGCLSERFREDLKKEIPEVDAYYGKFDWKQLISHLGKSYYAEAENRRKLTTPRHYAYLKISEGCDRSCSYCAIPIITGRHRSRPMEDLVEEVRMLVKHGTREFQLIAQDLTFYGLDLYGANRLAELTARLSDIKGVEWLRLHYAYPAQFPLDLLPVMRERPNVCKYLDMALQHISDPMLGRMRRRITKAETYELIERIRTEVPGIHLRTTLMTGHPGETERDFEELLQFVRDIRFERLGAFTYSHESGTYCDKNYQDDIPESVKQERLGELMAVQERISAAHNEAKIGSRLHVVIDRAEDGFYVGRTEYDSPEVDPEVLIPFVSGQELNPGRFYMAEVTGAEPFDLYARIVDLEHHHHHH	failed
MRRSPCNQGLSNLMQLFTYLAPAGQALLPYLSEISIALVACTLVMLGGEINAFLRRALRNQHFLVRTLAFIFINAFGYGLIIVKASPYVARTLAQLESGMMLTLIVSCFVVIGLWAQRNHQI	failed
MRRSPWRIAYTTKPADTAVPARHPSMAHIFFAASIQRHIATPEREVDARTLGEALEAVFAAQPRLRGYILDDQGALRKHLAVFVDGQPVRDRQHLSDALGENSRVYVIQALTGG	failed
MRRSRSSAAAKLRGQKRSGASGASAAPAASAAAALAPSATRTRRSASQAGSKSQAVEKPPSEKPRLRRSSPRAQEEGPGEPPPPELALLPPPPPPPPTPATPTSSASNLDLGEQRERWETFQKRQKLTSEGAAKLLLDTFEYQGLVKHTGGCHCGAVRFEVWASADLHIFDCNCSICKKKQNRHFIVPASRFKLLKGAEHITTYTFNTHKAQHTFCKRCGVQSFYTPRSNPGGFGIAPHCLDEGTVRSMVTEEFNGSDWEKAMKEHKTIKNMSKE	failed
MRRSSSKKKSGQSTESVTTDLFRSASSKASNKEMDRIDHLFNQYANKSSSLIDPEGIEELCSNLEVSHTDIRILMLAWKMKAEKQGYFTHISFPDMGDYNPELAWPLILDNFVEWIQEKQA	failed
MRSFSKFAQIVFFGLLIVSAIFVVSCGGSGNAVLNKDKPLVFFNRQPSDPTTGEIDMTSMNWNDKTYYVGFDAAGGGAVQGKLITDFLVSAETSLDRNGDGIIGYVLCIGDVGHNDSKARTEGIRKALGTWAGSTDPGKTKQGSITIAGKTFDVVELEGKAMTGTDGSTWNANAATEAMGGWATKFADQIDMVVSNNDGMAMGCLQASNYPAGVPIFGYDANADAIEAVGKGLLTGTVSQNVDAQATATLQVLRNLLDGLTGTDVYTKGITAEDSYGNKISAPVQYWADVKAVMAANSGVTKANYENYLGGTRDAGIKQTNAPKKKVLLTIYNSGDNFLSSSYLPALKYYAPLLNIELTIVQGDGQNESSCLDKFTNLNNFDAFAVNMVKTNSGSNYTDKLKY	failed
MRSGFRRCCPAIQRFKKVQRILLIVLFLNLAVAFAKIIYGTLTSTLSMTADGYHSLFDGVSNIVGLVGSFIAARPPDKEHPYGHQKYETIASIFIALLLLYVGVEIFRHALDRFLIRSVPEVTAISFLVIIGTMCINYLVTRYEYRQGLALRSQVLIADSLHTKSDIYVSLSVILSLAAVKLGFPLLDPLIAVLISFLIFRAGFRIMKESSKVLLDMSRLEEDEICNLVLGVEGVLGCHKIRTRGGMGDIRIDMHVLVQADLTLEEAHLISHRVSKMLKAEYNDVTDVVVHLEPALPQGSYSKKTT	failed
MRSHNLFGDMCEAFMTKYVMTELRPKTQTLYKSTFNKYVTPYKNIDIERYKYTDWIAYFDWVKKESSSANAGSVLKRFKAVANWAKARGQIKHSHLIDIPIKLEHHHHHH	failed
MRSIAMQAADLYVLQTAQSWLDAGQAAVLLTVARTWGSSPRPPGAMMAIRADGAVAGSVSGGCIEDDLIDQIRQRGIAALCPGARPALATYGVDGEQARRFGLPCGGTLQLVLEPLGAHSRLADLLARLRAHQTVRRSVRLADGAVTLEPAAADAEPRLDGAGFASVLGPRHRLLVVGAGQLSRYLCEMAIALDFDVTVSDPRQEYRAGWQVEGVALTTAMPDDMVIAARPDARTAVIALTHDPKLDDLALIDALQTPAFYVGALGSRANHARRVARLREHFGLTPAQLARLRGPAGIYIGSRTPPEIALSIMAEIVAGKNGAPLPPAASVAAGKARQPGGAGVIQAGLCATL	failed
MRSNTFIQFAATLVAFVAACLFPAWSMAATHNVVLSAETLPNGQPAYKLLSHTSSNGTVPGYATEATIPGPTLFIKTGDKINVQLTNNTQSPVSFTAPGLSTGNSALAAPGQTKSYRLNARKAGTFAYHDEKAPMLGLFGAIVVDESNGHVQSYVDGDGTIVSTKRSQLSKEFVLFMVGSTFWGAEISRNGNQQPLWANPDLGAYQDDLLRFHVLAVGPGHTFHLHAHRWIEPGSSQKTPHIIDTHILDDLNNSHVFTIKAGTGVGPGVWQLHCHLISHMQSGMNSRIHVVARDSGQSADSIVGASPSGAIFLNDSDQPGLVTFIVSDEPAGWFRSARGDALSPVTHTKSLEIIPPGSSVHFVMSDTAGVHTITSLLWPSEAGHNDHGGDHFMIPFDETKAYRGGAILKLNVPGLYVFTCKIHPFMFAAVIVDDPATDGLDLGNTIDLISGVKNLPTSSDLATRLLHTFFVTTVPKNWQDFTSPNPWKIAYPDVDVVVDIGKVSLPAVLNARYGNDISLSPLPRPAVPGIGEVWVDTQFEKTAGKTKPGTITVVDTSNWTLKRKIALPQINMNNPHNMWPNRDHSIVYTTQWFDNKLTAIKQKTGKLASNVQVGDSPSHVMTLPNTDDITVAINGENDIVIIPAGTTKVNYALLTQSHGQAPGNPHGHWISADGKRIITPNINTHDAGFYDVEDGKIVARTATGEGQPGAHPIAIGMLPDSSKVYAANLLHHSVSVMDGDGNFIKNINLIEHYDPISGAINGPIGILPIQSPVSPDGKVMVTASYGGQIVVIDTRTDSIVKSLPCDPGCHGANFGAKKGGGYYAYITNKFSNRLIVVDPDPNGDGDLSDAEIAGAVTLVADSRVPKDDKISSLAGFGGQGIVALPNVYNGWVQNLNSQWSAGLTDQQRNPVQ	failed
MRSRVVREGSVGLMLVAGVGALAGLIFWLRGVSLGQDRYDVIVEFNDTAGLTVGTPVIYRGVQVGQVIDITAQSNSVLVRIQIQPASLAIPRDSVISAQISSLLGSPNLTIEPKRNIPAEVLAKTQPRSPNCDRAVILCNGSVVEGAQSASFASILTSIATLVSEIEQAKLVNTLSQTSRDASEAARSIRQLSSSLQQQIPPLRETLNAAQGAASQVEAAIAENRQSVRTTLTNLESSSQELQDILNSLEPAIDKANSGKLVDNLNELSANLAVASRNIRDVSTALNSPENLLTLQQTLDSARITFQNAQKITTDLNRLTGDPAVIENIRRLINSLGRLLSSTGALQEQVTDLKSLPLLPVSESPAGEAVVRRPNQP	failed
MRSSKMDMPIVLSKRHRRLRSMKDCEPGLPYNEIVENGKRIDLCYSKQYKKYTKKIEIRVGTSILHNKLLRIFPNIVKIYSKHFINLPDLITENTEKRELIFIELENLIIGGGTSGLGVLSEISKEEKTLLISSNIESNTDIPYPLPQINKDEFSKLLRDTINENKDRILEGILLGKFDEGIGFLTKDKILMVRAKRVFLATGGRYIPPIFDGNDIPGIISKNLYLRYGNRITKAIALGNSDDIIKVLFKVEKRVIINNGVLFLSKYYKELIDELGVEIINTNNLKVKREKGGMLKIITNERSFDSNILVYAIVKQPKIDHSYNIGIPYNFSEYFHIYMPIHSIEGKTNDNIYIVGGMRGISDEYTSFLSGKTAVNEKYLDEFINNLKDYTYIYDYYYQKNPKENPSPYIYGNKGYVCECEDITLSEVNRQVGRGFSKVEEIKRTIGLGTGECQGKLCTYSLGSFLGDRQLITFRTPLYRMVI	failed
MRTDFNVFTTGGAPMKQIIRQFSIGTVAYAIMQVASAQVAITNVVPMNIPGQGTEIRVMFNGLPPQPQAYQLEQPARLILDFDKAGQKLAKSLIPVTTNEASSIDVSSDDKRARVVVNLKDAGAFTTRVEGNVFILKINNIQSTATPVATSAPAPQQGIGNIGFQRGAQGEGLVVIDLQGTNTPVDVQQQGSKVVVRFPGIKIPTHLARRLNTTDFATPVASIDSYNDGSNGVISIQSTGSYEYMAYQAENKLTISLKRPQDNVRLNSKNNQNYTGKKISLDFQDIEVRRVLQLLADFTNINMVTADSVQGNITLHLKDVPWDQALDIILKTKNLDKRRNGNVIWIAPVSELIKSEEDEAKAIAQSTKLAPLQTEYILLKYAKAADIEKLITQGRNSGTSNSNTNGSATVEPLGDSVGTLLSPRGTISLDPRTNTLIINDTSQKIDQIRKMIDLLDIPVKQVMIEARIVRATTSFSKEMGVKWGILSQGINQNSNLLVGGSETTLWNLRNPDSNGTYTIERPDNLNVDLGVTTTGASSIAFGLISLSDFMLDLELSALQADGYGEVISTPKVMSADKQKAKVATGVEVPYQSTTNSAAGSTATTSFKEALLSLEVTPNITPDGKILMELNIANDSINSYAQNGEAILNKNTINTNVLVNNGETVVLGGVFEQTTNNAVTKVPFLGDLPYVGRLFKKTAKSEAKNELLIFVTPRIVNDTIVGNH	failed
MRTILFKSVPFSKEAVTLALESGVDGIIVPEKHVAPVQALARCKVLCDDAVCTLELTAKADEEEAASRLAAGEDVVLARGWEIIPVENLLARSDRVTVEVASLDEARLAAGILERGVSTVVVLPQAVTELKAIVQELKLSQGRIDLAPAVVTAVRPVGLGHRVCVDTMSLLRTGQGMLVGNSSAFTFLVNAETEHNEYVAARPFRINAGAVHAYAVMPGDRTTYLEELRSGSEVLIVGADGATTIATVGRLKVEVRPMLLVEARVGDTVGAVFLQNAETIRLVRADGTPVSVVALREGDEVLCRTDVAGRHFGMRITEDIREA	failed
MRTLNKDEHNYIKQIANIHETLLSQVESNYKCTKLSIALRYEMICSRLEHTNDKIYIYENEGQLIAFIWGHFSNEKSMVNIELLYVEPQFRKLGIATQLKIALEKWAKTMNAKRISNTIHKNNLPMISLNKDLGYQVSHVKMYKDID	not failed
